# From publication PMC4460818, “Regulation of NDR1 activity by PLK1 ensures proper spindle orientation in mitosis” (Scientific Reports, 2015)
# B1: GST-Mob1A (natural protein, human (cDNA from HeLa), UniProt Q9H8S9 1-216, looked up)
# chain: MSFLFSSRSSKTFKPKKNIPEGSHQYELLKHAEATLGSGNLRQAVMLPEGEDLNEWIAVNTVDFFNQINMLYGTITEFCTEASCPVMSAGPRYEYHWADGTNIKKPIKCSAPKYIDYLMTWVQDQLDDETLFPSKIGVPFPKNFMSVAKTILKRLFRVYAHIYHQHFDSVMQLQEEAHLNTSFKHFIFFVQEFNLIDRRELAPLQELIEKLGSKDR
# notes: Mob1A; cDNA isolated by PCR from a HeLa cDNA library, cloned into pGEX-6P-1; Vector pGEX-6P-1, BamHI and SalI; also called recombinant Mob1A; source: E. coli, purified by glutathione-agarose beads
# Tests used:
# MBP-NDR1 wild type = molecular target: T1, MBP-NDR1 wild type (human, UniProt Q15208 1-465); experiment: pull-down; GST or GST-fusion protein on agarose beads incubated with purified dissolved MBP-tagged proteins in PBS, 0.1% Triton X-100, 0.5 mM DTT, 4 °C, 3-8 hours; SDS-PAGE, CBB stain; bands quantified by ImageJ for the Mob1A pull-down; conditions: both partners purified
# T1 construct: NDR1 kinase, human, full length; cDNA isolated by PCR from a HeLa cDNA library; Vector pMAL-C2x; also called MBP-tagged NDR1; NDR1^WT; source: E. coli, purified by amylose beads, eluted by 10 mM maltose (told for MBP and the MBP-NDR1 mutants)
# GST-Mob1A = molecular target: B1; experiment: as above; conditions: both partners purified
# T1 sequence (Q15208 whole entry, the tested form may be a part): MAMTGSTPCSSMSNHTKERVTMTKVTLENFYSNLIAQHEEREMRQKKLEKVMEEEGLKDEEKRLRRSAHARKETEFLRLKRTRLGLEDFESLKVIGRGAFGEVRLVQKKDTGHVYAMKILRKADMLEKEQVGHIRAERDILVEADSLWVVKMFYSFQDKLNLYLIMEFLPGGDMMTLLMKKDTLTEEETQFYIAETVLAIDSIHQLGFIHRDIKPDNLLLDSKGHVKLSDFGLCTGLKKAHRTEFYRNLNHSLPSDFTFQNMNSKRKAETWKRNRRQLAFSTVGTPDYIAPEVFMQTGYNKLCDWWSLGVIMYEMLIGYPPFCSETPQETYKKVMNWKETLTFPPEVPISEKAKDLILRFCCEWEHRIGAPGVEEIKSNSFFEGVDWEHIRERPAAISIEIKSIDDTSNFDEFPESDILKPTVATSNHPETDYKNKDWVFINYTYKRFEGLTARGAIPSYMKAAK
binder,measurement,setting,value
B1,binding result,MBP-NDR1 wild type,binds
"MBP-NDR1^3A (enzyme, NDR1 kinase, human, full length, Thr7, Thr183 and Thr407 mutated to alanines; Mutants were made on the siRNA-resistant (silent changes) NDR1 plasmid; source: E. coli, purified dissolved MBP-tagged protein) not shown",percent retained relative to NDR1^WT,GST-Mob1A,> 90%
"MBP-NDR1^3E (enzyme, NDR1 kinase, human, full length, phospho-mimicking mutant of the PLK1 sites Thr7, Thr183 and Thr407 (3E); glutamate is read from that name; Mutants were made on the siRNA-resistant NDR1 plasmid; also called phosphomimetic mutant NDR1^3E; source: E. coli, purified dissolved MBP-tagged protein) not shown",percent bound relative to NDR1^WT,GST-Mob1A,< 30%
